Laboratory results from patent US20130184211A1 (NEW YORK UNIVERSITY, published 2013).

T1: 1:1 binary complex of the ectodomains of FGFR1c and Klotho (human; murine, UniProt O35082 35-982)
T1 construct: range 35-982; also called FGFR1c-Klotho complex; binary FGFR1c-Klotho complex; not shown: C-terminal FLAG tag
T1 sequence 1: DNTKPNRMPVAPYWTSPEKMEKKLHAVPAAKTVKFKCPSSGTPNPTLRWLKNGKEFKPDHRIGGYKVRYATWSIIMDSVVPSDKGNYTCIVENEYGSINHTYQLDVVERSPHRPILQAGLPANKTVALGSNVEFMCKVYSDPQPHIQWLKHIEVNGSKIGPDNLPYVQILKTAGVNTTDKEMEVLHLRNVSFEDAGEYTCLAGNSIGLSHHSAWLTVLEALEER
T1 sequence 2: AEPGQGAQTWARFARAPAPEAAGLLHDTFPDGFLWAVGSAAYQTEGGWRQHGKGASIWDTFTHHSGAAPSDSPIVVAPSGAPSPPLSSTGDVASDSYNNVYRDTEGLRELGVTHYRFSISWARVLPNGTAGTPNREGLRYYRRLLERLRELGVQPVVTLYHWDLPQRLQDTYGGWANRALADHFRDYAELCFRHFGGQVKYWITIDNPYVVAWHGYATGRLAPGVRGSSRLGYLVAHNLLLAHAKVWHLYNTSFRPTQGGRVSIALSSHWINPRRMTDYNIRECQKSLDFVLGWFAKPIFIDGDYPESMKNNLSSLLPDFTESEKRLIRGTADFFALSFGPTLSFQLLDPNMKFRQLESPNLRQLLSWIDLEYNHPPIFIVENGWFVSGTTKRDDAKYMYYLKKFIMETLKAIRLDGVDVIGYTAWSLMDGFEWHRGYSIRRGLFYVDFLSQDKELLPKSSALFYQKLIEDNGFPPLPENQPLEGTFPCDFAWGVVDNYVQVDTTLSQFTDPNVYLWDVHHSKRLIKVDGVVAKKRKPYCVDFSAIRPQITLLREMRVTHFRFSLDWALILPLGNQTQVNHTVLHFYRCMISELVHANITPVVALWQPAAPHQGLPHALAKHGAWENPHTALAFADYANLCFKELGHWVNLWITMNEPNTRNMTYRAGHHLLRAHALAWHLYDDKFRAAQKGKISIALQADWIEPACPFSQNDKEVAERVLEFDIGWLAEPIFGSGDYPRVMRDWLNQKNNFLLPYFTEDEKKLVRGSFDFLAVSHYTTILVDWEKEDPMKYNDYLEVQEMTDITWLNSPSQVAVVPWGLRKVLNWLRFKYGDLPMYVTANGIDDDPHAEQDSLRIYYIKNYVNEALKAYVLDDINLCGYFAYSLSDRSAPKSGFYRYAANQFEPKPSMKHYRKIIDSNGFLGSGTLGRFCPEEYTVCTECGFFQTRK

B1: N-terminally hexahistidine-tagged 72-amino acid C-terminal tail of human FGF23 (S180 to I251), FGF23^180-251 (peptide)
peptide: SAEDDSERDPLNVLKPRARMTPAPASCSQELPSAEDNSPMASDPLGVVRGGRVNTHAGGTGPEGCRPFAKFI
notes: Expressed in E. coli; also called FGF23 C-terminal tail peptide; C-terminal tail of FGF23; not shown: N-terminal hexahistidine tag (six His)
B2: FGF23 C-terminal region peptide (S180 to S205), FGF23^180-205 (peptide)
peptide: SAEDDSERDPLNVLKPRARMTPAPAS
notes: Made by solid phase synthesis (GenScript)

Experiments:
[1] = target: T1, 1:1 binary complex of the ectodomains …; test: SPR competition; FGF23^28-251 immobilized; reference FGF23^28-251 in solution
Excerpt: To analyze FGF23 binding to the binary FGFR1c-Klotho complex, FGF23²⁸⁻²⁵¹ was coupled to a chip, and increasing concentrations of 1:1 complex of the ectodomains of FGFR1c and Klotho in HBS-EP buffer were passed over the chip. To measure binding of the C-terminal tail of FGF23 to the binary FGFR1c-Klotho complex, FGF23¹⁸⁰⁻²⁵¹ was immobilized on a chip, and increasing concentrations of 1:1 complex of the ectodomains of FGFR1c and Klotho in HBS-EP buffer were passed over the chip. To examine whether the C-terminal tail of FGF23 can compete with full-length FGF23 for binding to the binary FGFR1c-Klotho complex, FGF23²⁸⁻²⁵¹ was immobilized on a chip. Increasing concentrations of FGF23¹⁸⁰⁻²⁵¹ were mixed with a fixed concentration of 1:1 complex of the ectodomains of FGFR1c and Klotho in HBS-EP buffer, and the mixtures were passed over the chip. As a control, competition of FGF23 in solution with immobilized FGF23 for binding to the binary FGFR1c-Klotho complex was studied. Increasing concentrations of FGF23²⁸⁻²⁵¹ were mixed with a fixed concentration of 1:1 complex of the ectodomains of FGFR1c and Klotho in HBS-EP buffer, and the mixtures were passed over the FGF23 chip. […] As a control, competition of FGF23 C-terminal tail peptide in solution with immobilized FGF23 C-terminal tail peptide for binding to the binary FGFR1c-Klotho complex was analyzed. […]

[2] = target: FGFR-Klotho complex of opossum kidney OKP cells (opossum); test: cell-based or functional assay

| Binder | rightward shift of the dose-response curve compared to full-length FGF23 [1] [fold] | antagonism of the inhibition of sodium-coupled phosphate uptake by FGF23^28-251 in OKP cells, IC50 [2] [µM] |
| --- | --- | --- |
| B1 | ~3 | ~0.021 |
| B2 | ~6 |  |
